What was measured:
[1] = Effects of substrate concentration and temperature on the maximum yield of trehalose; type: biochemical, Picrophilus torridus; conditions: 150 mM maltose, pH 6.0, 60° C., three days
[2] = Enzyme assay: amount of trehalose produced from maltose by PTTS; type: biochemical, Picrophilus torridus
Protocol: (§1) The activity of PTTS was assayed by measuring the amount of trehalose produced from maltose. The standard reaction was performed by adding 1.5 μL purified enzyme into 50 μL reaction solution containing 50 mM sodium phosphate (pH 6.0) and 150 mM maltose and incubating in a 45° C. water bath for 25 min. The assay time was under the linear range of enzyme reaction. The reaction was terminated by heating the mixture in boiling water for 15 min. One unit of enzyme activity was defined as the amount of enzyme that catalyzes the formation of 1 μmol of trehalose per min. Kinetic analysis was performed under conditions of pH 6.0 and 45° C. for 5 min in 50 mM sodium phosphate buffer containing substrate (maltose, trehalose, or maltose plus a constant 10 mM of glucose) at various concentrations. The resulting data were analyzed offline with Origin 6.0 software (Microcal, Northampton, Mass.). All experiments were carried out in duplicate or triplicate.
(§2) The amount of trehalose, glucose, and maltose after each enzymatic reaction was measured using a high performance liquid chromatography (HPLC) (SFD 2100) system equipped with an RI detector (Schambeck S F D, RI 2000) at a flow rate of 0.9 mL/min. A carbohydrate analysis column (HYPERSIL-100 Amino, Thermo Hypersil-Keystone) equilibrated with 75% acetonitrile, 24% Milli-Q water, and 1% formic acid was used. The retention times of glucose, maltose, and trehalose were 8.0, 11.2, and 12.5 min, respectively.

[3] = type: biochemical, Picrophilus torridus
Protocol: FIG. 2 is a graph which illustrates the effects of pH on the activity and stability of Picrophilus torridus trehalose synthase. The enzyme activities at various pH levels were examined at the maltose concentration of 150 mM and temperature of 45° C. for 25 min. The pH stability of Picrophilus torridus trehalose synthase enzyme was examined by measuring the residual activity of enzyme at pH 6.0 after pre-incubation in various pH levels at 45° C. for 20 min. The solid square (▪) and circle (●) notations indicate the enzyme activity under 50 mM sodium phosphate buffer (pH 6.0˜8.5) and 50 mM acetate buffer (pH 3.5˜6.0), respectively. The open square (□) and circle (◯) notations represent the pH stability under 50 mM sodium phosphate buffer (pH 6.0˜8.5) and 50 mM acetate buffer (pH 3.5˜6.0), respectively.
FIG. 3 is a graph which illustrates the effects of temperature on the activity and stability of Picrophilus torridus trehalose synthase. The enzyme activities at various temperatures were examined at the maltose concentration of 150 mM and pH 6.0 for 25 min. To examine temperature stability, the residual activity of the enzyme was measured at 45° C. after pre-incubation of the purified enzyme at different temperatures (4° C.˜100° C.) and pH 6.0 for 20 min. The solid circle (●) and open circle (◯) notations denote the enzyme activity and temperature stability, respectively, under various temperatures.
as §1
Effects of pH and Temperature on the Activity and Stability of Recombinant PTTS. The pH dependence of PTTS was studied at 45° C. in 50 mM acetate buffer (pH 3.5-6.0) or 50 mM phosphate buffer (pH 6.0-8.5) using 150 mM maltose as a substrate. […] The effects of temperature on PTTS activity and stability are depicted in FIG. 3. The optimum temperature was 45° C. and the enzyme maintained stability up to 60° C. at pH 6.0 for 20 min.

[4] = Effects of substrate concentration and temperature on the maximum yield of trehalose; type: biochemical, Picrophilus torridus
Protocol: FIG. 4 is a graph which illustrates the effects of substrate concentration on the maximum yield of trehalose by Picrophilus torridus trehalose synthase. Purified enzyme was incubated with different concentrations of maltose in 50 mM sodium phosphate buffer (pH 6.0) at 45° C. Samples were collected at various intervals of reaction time and analyzed by HPLC. The symbols which indicated different concentrations of maltose are open square (□) 1 M; solid square (▪), 500 mM; solid triangle (▴), 250 mM; open rhombus (⋄), 150 mM, and open circle (◯), 50 mM.
FIG. 5 is a series of graphs illustrating the effects of temperature on the formation of trehalose (5A) and glucose (5B) from maltose (5C) by Picrophilus torridus trehalose synthase. Reaction mixtures containing purified Picrophilus torridus trehalose synthase, 150 mM maltose and pH 6.0 sodium phosphate buffer were incubated at various temperatures for 72 h. Samples were collected at various intervals and analyzed by HPLC. The symbols which indicated different reaction temperatures are open square (□) denoting temperature of 20° C.; solid square (▪) denoting temperature of 30° C.; solid triangle (▴) denoting temperature of 45° C.; and open triangle (Δ) denoting temperature of 0° C.
as §2
Effects of Substrate Concentration and Temperature on the Maximum Yield of Trehalose. The effects of the substrate concentration on the yield of trehalose by PTTS were examined at pH 6.0, 45° C., and various maltose concentrations. A maximum conversion was reached after 24 hour incubation for each reaction. The final yield of trehalose increased as the substrate concentration increased. […] Therefore, a higher maximum yield was gained at a lower temperature.

[5] = Kinetic analysis of PTTS with maltose or trehalose as substrate; type: biochemical, Picrophilus torridus; conditions: pH 6.0, 45° C., 5 min
Protocol: as §1
Kinetics Analysis. Kinetic parameters of PTTS were investigated at pH 6.0 and 45° C. for 5 min using maltose or trehalose as substrate (FIG. 7). […] This kinetic data is useful for determining the baseline activity of the enzyme and enables one of skill in the art to use this activity as a criterion for the isolation or construction of variants having substantially equivalent enzymatic activity.

[6] = 150 mM maltose, pH 6.0, 20° C., three days
[7] = 150 mM maltose, pH 6.0, 30° C., three days
[8] = 150 mM maltose, pH 6.0, 45° C., three days
[9] = 150 mM maltose, pH 6.0, 60° C., three days

B1: PTTS: recombinant Picrophilus torridus trehalose synthase with C-terminal linker and His(6)-tag (SEQ ID NO: 4), expressed in E. coli (protein, listed as Picrophilus torridus)
chain: MLDNNGLWYRDAVFYEVPVKSFYDSNNDGIGDFNGLTMKLDYLKKLGVDALWLLPFYKSPLKDDGYDISDYYSILPEYGTIDDFKNFIDTAHSMNIRVIADLVLNHVSDQHPWFIESRSSIDNPKRDWFIWSDTPEKFKEARIIFIDTEKSNWTYDPETKQYYFHRFYSSQPDLNYDNPDVRNEVKKVIRYWLDLGLDGFRADAVPYLFKRENTNCENLPETHNFFKEIRKMMDEDYPGTILLAEANQWPTETKAYFGNGDEFHMAFNFPLMPRIFIALARSDYYPIMDIIKQTLPIPDNCDWCIFLRNHDELTLEMVTDSERDIMYREYAKIPKMRLNLGIRRRLAPLADNDINTIELLNALIFSLPGTPIIYYGDEIGMGDNIYLGDRNGVRTPMQWSYDRNAGFSMADSEQLYSPVITNPNYHYESVNVEAELRLSSSLLNWMIKIIHVRKDYKELLGRGSIKFIEQGNKRVLSYIREYENQRMLCLFNLSRNPTYVELNLSDYIGLKPIEAITKAAFPRIKDDRYFITMTPRSFFWFNLIVPERDDSYDLIGEDANSRVDKLAAALEHHHHHH
[1]
  maximum conversion of maltose into trehalose: 50%
[2]; purified recombinant His-tag PTTS after Ni-column, 1 unit = 1 μmol trehalose per min
  specific activity: 80 units per mg of protein
[2]; recombinant PTTS, estimated
  specific activity toward maltose: about 80 units/mg protein
[2]; toward maltose
  specific activity as share of that of T. aquaticus trehalose synthase: about 60%
  specific activity relative to M. smegmatis trehalose synthase: about 2.8 fold
  specific activity relative to P. stutzeri CJ38 trehalose synthase: roughly equal
  specific activity relative to Pimelobacter trehalose synthase: about 4.7 fold
[3]; 45° C., 150 mM maltose
  activity at pH 5.0: maintained high activity
[3]; 45° C., 150 mM maltose, acetate or phosphate buffer
  optimum pH: 6.0
[3]; pH 5.0
  activity maintained at pH 5.0: 80%
[3]; pH 6.0, 150 mM maltose
  optimum temperature: 45 °C
[4]; [6]
  glucose content: 3.6%
  maltose content: 25.4%
  maximum conversion of maltose into trehalose: 71%
[4]; [7]
  glucose content: 4.3%
  maltose content: 27.6%
  maximum conversion of maltose into trehalose: 68%
[4]; [8]
  glucose content: 7.8%
  maltose content: 31.2%
  maximum conversion of maltose into trehalose: 61%
[4]; [9]
  glucose content: 19.2%
  maltose content: 31.3%
[4]; pH 6.0, 45° C., each maltose concentration
  incubation time to reach maximum conversion: 24 h
[4]; pH 6.0, 45° C., various maltose concentrations (50 mM to 1 M)
  maximum conversion of maltose into trehalose: around 60%
[5]
  enzyme efficiency (kcat/KM) toward maltose relative to trehalose: 2.5 fold
  kcat for trehalose relative to maltose: twofold higher

Source: patent US7927850B2, “Composition containing trehalose synthase and methods of use thereof” (Academia Sinica, priority 2006, dated 2011)
